Biological target: T1, recombinant uracil-DNA-glycosylase inhibitor (rUgi), P14739
T1 chain: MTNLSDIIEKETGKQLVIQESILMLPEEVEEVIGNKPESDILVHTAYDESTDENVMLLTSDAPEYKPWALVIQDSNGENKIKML

B1: uracil-DNA-glycosylase (UDG) (protein)
chain: ANELTWHDVLAEEKQQPYFLNTLQTVASERQSGVTIYPPQKDVFNAFRFTELGDVKVVILGQDPYHGPGQAHGLAFSVRPGIAIPPSLLNMYKELENTIPGFTRPNHGYLESWARQGVLLLNTVLTVRAGQAHSHASLGWETFTDKVISLINQHREGVVFLLWGSHAQKKGAIIDKQRHHVLKAPHPSPLSAHRGFFGCNHFVLANQWLEQRGETPIDWMPVLPAESE
B1 was tested, and the “digestion of DNA-dUTP by UDG 1/35 (agarose gel), without and after 10 min at 90 C” value was “the two dilutions of Ugi indeed inhibit the digestion of DNA by UDG (lanes D and G); after a treatment of 10 minutes at 90° C., the Ugi remains active because it still inhibits the UDG (lanes J and M)”, the “digestion of DNA-dUTP by UDG 1/35, 60 min at 37 C (agarose gel)” value was “the two dilutions of Ugi indeed inhibit UDG (lanes D and G)” and the “digestion of DNA-dUTP by UDG (agarose gel), UDG 1/25” value was “at the highest concentration of UDG, the UDG activity may be inhibited by Ugi at 1/20 000 but not at 1/30 000”. The “digestion of DNA-dUTP by UDG (agarose gel), UDG 1/50” value was “at the lowest concentration of UDG, the UDG activity is inhibited both by Ugi at 1/20 000 and at 1/30 000”.

Source: patent US20090170166A1
